Source: patent US20220002389A1

Tests used:
[1] = biological target: HIV-1 BaL strain envelope protein (gp120) on BaL-infected CEM.NKR-CCR5 (NKR24) cells (HIV-1 BaL strain); experiment: flow cytometry on BaL-infected NKR24 cells; antibody at 0.032 µg/mL
[2] = biological target: HIV-1 BaL strain envelope protein (gp120) on BaL-infected CEM.NKR-CCR5 (NKR24) cells (HIV-1 BaL strain); experiment: flow cytometry on BaL-infected NKR24 cells; antibody at 20 µg/mL
[3] = biological target: HIV-1 BaL strain envelope protein (gp120) on BaL-infected CEM.NKR-CCR5 (NKR24) cells (HIV-1 BaL strain); experiment: flow cytometry on BaL-infected NKR24 cells; antibody at 0.8 µg/mL
[4] = biological target: HIV-1 BaL strain envelope protein (gp120) on BaL-infected CEM.NKR-CCR5 (NKR24) cells (HIV-1 BaL strain); experiment: cell-based or functional assay
[5] = biological target: HIV-1 BaL strain envelope protein (gp120) on BaL-infected CEM.NKR-CCR5 (NKR24) cells (HIV-1 BaL strain); experiment: flow cytometry on BaL-infected NKR24 cells; antibody at 4 µg/mL
[6] = biological target: HIV-1 BaL strain envelope protein (gp120) on BaL-infected CEM.NKR-CCR5 (NKR24) cells (HIV-1 BaL strain); experiment: flow cytometry on BaL-infected NKR24 cells; antibody at 0.16 µg/mL
[7] = biological target: HIV-1 BaL strain envelope protein (gp120) on BaL-infected CEM.NKR-CCR5 (NKR24) cells (HIV-1 BaL strain); experiment: flow cytometry on BaL-infected NKR24 cells; antibody at 100 µg/mL

B1: SW-1C10 (1C10 antibody produced in the cocoons of transgenic silkworms) (antibody, human IgG1, kappa, V domains shown)
VH: EVQLVESGGGVVQPGRSLRVSCVASGFMFSNYAMHWVRQTAGKGLEWVAIISNDGSDKYYADSVQGRFTVSRDNSQNTLFLQMSGLRPEDSGLYYCARDLDQTIPDLTAPAFEVWGQGTMVTVSS
VL: DIVMTQSPLSLAVTPGEPASISCRSSQSLLHSDGNNYLDWYLQKPGQSPQLLIYLTSNRASGVPDRFSGSGSGTDFTLKISRVEAEDVGVYFCMQSLQTWTFGQGTKVEIKR
modifications: N-glycans without core fucose (silkworm-produced)
MFI [1]: 779 MFI | MFI [2]: 1640 MFI | MFI [3]: 1260 MFI | IC50 (50% inhibitory concentration) of infection of TZM-bl cells by BaL virus, luciferase RLU; 'Dose at Y = 50' [4]: 0.108 µg/mL | MFI [5]: 1440 MFI | MFI [6]: 1080 MFI | MFI [7]: 1900 MFI

B2: 293A-1C10 (1C10 antibody of 293A origin) (antibody, human IgG1, kappa, V domains shown)
VH: EVQLVESGGGVVQPGRSLRVSCVASGFMFSNYAMHWVRQTAGKGLEWVAIISNDGSDKYYADSVQGRFTVSRDNSQNTLFLQMSGLRPEDSGLYYCARDLDQTIPDLTAPAFEVWGQGTMVTVSS
VL: DIVMTQSPLSLAVTPGEPASISCRSSQSLLHSDGNNYLDWYLQKPGQSPQLLIYLTSNRASGVPDRFSGSGSGTDFTLKISRVEAEDVGVYFCMQSLQTWTFGQGTKVEIKR
MFI [1]: 983 MFI | MFI [2]: 1780 MFI | MFI [3]: 1290 MFI | IC50 (50% inhibitory concentration) of infection of TZM-bl cells by BaL virus, luciferase RLU; 'Dose at Y = 50' [4]: 0.133 µg/mL | MFI [5]: 1530 MFI | MFI [6]: 1210 MFI | MFI [7]: 1780 MFI
